Measured values taken from article PMC7094404 (Archives of Biochemistry and Biophysics, 2008).

Tests used:
[1] = target: SARS-CoV main protease Δ(306) (SARS-CoV)
[2] = target: SARS-CoV main protease Δ(306) (SARS-CoV); assay: AUC
[3] = target: SARS-CoV main protease Δ(301–306) (SARS-CoV)
[4] = target: SARS-CoV main protease Δ(302–306) (SARS-CoV); assay: AUC
[5] = target: SARS-CoV main protease Δ(304–306) (SARS-CoV)
[6] = target: SARS-CoV main protease Δ(304–306) (SARS-CoV); assay: AUC
[7] = target: SARS-CoV main protease Δ(305–306) (SARS-CoV)
[8] = target: SARS-CoV main protease Δ(305–306) (SARS-CoV); assay: AUC
[9] = target: SARS-CoV main protease Δ(303–306) (SARS-CoV)
[10] = target: SARS-CoV main protease Δ(303–306) (SARS-CoV); assay: AUC
[11] = target: SARS-CoV main protease Δ(298–306) (SARS-CoV); assay: AUC
[12] = target: SARS-CoV main protease Δ(297–306) (SARS-CoV); assay: AUC

For “SARS-CoV main protease Δ(306) (domain or fragment)”, the catalytic constant kcat for the 11-mer peptide ABZ-…-DNP [1] was 0.043 s⁻¹, the Kd [2] was 100 nM and the koff [2] was 0.6 s⁻¹.
For “SARS-CoV main protease Δ(301–306) (domain or fragment)”, the catalytic constant kcat for the 11-mer peptide ABZ-…-DNP [3] was 0.025 s⁻¹.
“SARS-CoV main protease Δ(302–306) (domain or fragment)” was tested, and the koff [4] was 0.01 s⁻¹.
“SARS-CoV main protease Δ(304–306) (domain or fragment)” gave a catalytic constant kcat for the 11-mer peptide ABZ-…-DNP [5] of 0.027 s⁻¹ and a koff [6] of 0.01 s⁻¹.
In the case of “SARS-CoV main protease Δ(305–306) (domain or fragment)”, the catalytic constant kcat for the 11-mer peptide ABZ-…-DNP [7] is reported as 0.039 s⁻¹, the Kd [8] is reported as 80 nM and the koff [8] is reported as 0.14 s⁻¹.
In the case of “SARS-CoV main protease Δ(303–306) (domain or fragment)”, the catalytic constant kcat for the 11-mer peptide ABZ-…-DNP [9] is reported as 0.022 s⁻¹ and the Kd [10] is reported as 340 nM.
“SARS-CoV main protease Δ(298–306) (domain or fragment)” gave a Kd [11] of 313 µM and a koff [11] of 36 s⁻¹.
In the case of “SARS-CoV main protease Δ(297–306) (domain or fragment)”, the Kd [12] is reported as 393 µM and the koff [12] is reported as 123 s⁻¹.
